Assay results from the supplement of paper PMC9732359.
± gives the uncertainty stated by the source.

Assay: protein stability index of a GFP-peptide fusion (yeast GPS) (PSI 1-4); higher = more stable; sorted into four equal gates, so the index is relative within each strain
How it was run: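 Each library plasmid carries Cherry plus GFP with a tiled 17-residue yeast protein peptide fused downstream, and the pooled library was carried in yeast. Mid-log cultures in leucine-free medium were sorted into four equal gates by GFP/Cherry ratio. Reads from Illumina sequencing of PCR-amplified plasmids from each gate were assigned to strains by barcodes. Per peptide, the protein stability index was computed as the summed products of gate read frequency and gate number.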

Sequence | protein stability index (doa10∆) | protein stability index (pdr5∆) | protein stability index (san1∆) | protein stability index (ubr1∆)
AADNLGSYGSLLRFNGV [PRE4] | 3.03 ± 0.088 | 3.15 ± 0.078 | 3.25 ± 0.12 | 3.04 ± 0.21
AADVSAVDAKQLAQIRQ [YML103C/NUP188] | 2.25 ± 0.071 | 2.94 ± 0.073 | 3.25 ± 0.072 | 2.5 ± 0.057
AAELQEKPLTPLKYTKL [SNF6] | 2.94 ± 0.13 | 3.02 ± 0.13 | 2.39 ± 0.17 | 2.78 ± 0.13
AAGYGKILGKGRIPNVP [RPL28] | 3.46 ± 0.087 | 3.2 ± 0.075 | 3.46 ± 0.066 | 3.48 ± 0.05
AAKPDNLANFSNEVAMN [SWP82] | 3.32 ± 0.11 | 3.22 ± 0.088 | 3.15 ± 0.056 | 3.23 ± 0.067
AAMVIMHLMALHIHGSS [COB] | 1.9 ± 0.051 | 1.48 ± 0.059 | 1.35 ± 0.093 | 1.35 ± 0.044
AAPSGNYKQLTLVGGGA [RRP43] | 1.36 ± 0.093 | 2.33 ± 0.07 | 2.23 ± 0.13 | 2.5 ± 0.079
AAQDVWNRADNHFKDTY [FAS1] | 3.05 ± 0.18 | 3.14 ± 0.1 | 3.19 ± 0.11 | 3.53 ± 0.13
AARHKQHEQGTFEKHDR [RRI2] | 3.02 ± 0.067 | 3.04 ± 0.23 |  | 2.96 ± 0.14
AATMTSAPPPALPHVEI [RGR1] | 2.52 ± 0.072 | 2.83 ± 0.083 | 2.49 ± 0.079 | 2.3 ± 0.055
ACHVEVPYVLMGQIATF [COB] | 2.08 ± 0.092 | 1.98 ± 0.088 | 1.87 ± 0.12 | 1.94 ± 0.066
ADDVFTGTGLQDENIGL [RPC31] | 3.46 ± 0.11 | 3.44 ± 0.096 | 3.21 ± 0.057 | 3.33 ± 0.07
ADKVYTKENLEVSGENV [QCR2] | 3.44 ± 0.1 | 3.59 ± 0.072 | 3.2 ± 0.092 | 3.28 ± 0.052
ADLSSSEEEEDEEENGS [SSN2] | 3.36 ± 0.087 | 3.51 ± 0.12 | 3.59 ± 0.084 | 3.29 ± 0.064
ADNDGPRINNISAEDRA [SNF2] | 2.79 ± 0.15 | 3.16 ± 0.18 | 2.9 ± 0.1 | 1.52 ± 0.24
ADTGRDDTKETVYISSI [RPN11] | 3.12 ± 0.09 | 3.28 ± 0.1 | 3.01 ± 0.073 | 3.16 ± 0.053
ADTIDHDELIDSIPRDV [YGL172W/NUP49] | 2.95 ± 0.098 | 3.24 ± 0.085 | 3.07 ± 0.056 | 2.88 ± 0.075
ADVKGVCTEAGMYALRE [RPT6] | 1.82 ± 0.08 | 2.23 ± 0.094 | 1.97 ± 0.12 | 1.27 ± 0.27
ADVLAMAKVEVNLAAIP [RIP1] | 1.84 ± 0.12 | 1.99 ± 0.13 | 1.82 ± 0.22 | 2.05 ± 0.077
ADVYAKALEGKDLKEIL [RPP1B] | 3.45 ± 0.22 |  | 3.51 ± 0.14 | 3.36 ± 0.2
AEASFTFGTKHAADSQN [YLR335W/NUP2] | 3.27 ± 0.14 | 3.01 ± 0.13 | 3.03 ± 0.092 | 2.67 ± 0.091
AEEEEESDDDMGFGLFD [RPP0] | 3.36 ± 0.09 | 2.96 ± 0.12 | 3.24 ± 0.046 | 3.25 ± 0.065
AEHKYMPYTINELLEMV [BRR2] | 2.92 ± 0.083 | 3.04 ± 0.092 | 2.53 ± 0.068 | 2.65 ± 0.043
AEKELEAEIECFDSTTG [RRP40] | 3.21 ± 0.17 | 3.06 ± 0.14 | 3.05 ± 0.1 | 2.66 ± 0.14
AEKLVPLPICHANSVVA [YML031W/NDC1] | 1.68 ± 0.2 | 1.34 ± 0.091 | 1.61 ± 0.2 | 1.42 ± 0.16
AEKSYLYDSLASTPSIR [RRP42] | 2.57 ± 0.15 | 2.33 ± 0.1 | 2.46 ± 0.19 | 3.2 ± 0.11

Sequence | protein stability index (doa10∆) | protein stability index (pdr5∆) | protein stability index (san1∆) | protein stability index (ubr1∆)
AEQEKAKNIISNVLDGN [LRP1] | 2.45 ± 0.051 | 2.7 ± 0.059 | 2.63 ± 0.056 | 2.98 ± 0.05
AEQLKISLSVHTLALEF [RRP46] | 2.1 ± 0.058 | 2.29 ± 0.044 | 2.37 ± 0.063 | 2.25 ± 0.048
AERTMSKKETKLQENRT [SMC2] | 2.84 ± 0.25 | 3.17 ± 0.19 | 3.31 ± 0.15 | 3.04 ± 0.13
AFEAELSNIPLLLITHH [ARP9] | 1.49 ± 0.071 | 1.68 ± 0.072 | 1.64 ± 0.089 | 1.58 ± 0.066
AFGLGAIMSKSSLEELL [ECM29] | 1.83 ± 0.089 | 2.07 ± 0.074 | 1.71 ± 0.12 | 2.06 ± 0.052
AFHNNLKFLYLLDAYSH [MED1] | 1.16 ± 0.07 | 1.25 ± 0.049 | 1.16 ± 0.1 | 1.26 ± 0.042
AFIDERASDLRMTIRTR [RRP43] | 1.81 ± 0.18 | 1.57 ± 0.11 | 1.24 ± 0.25 | 1.39 ± 0.12
AFLSKVPEFFQTANEKH [SRP14] | 3.21 ± 0.12 | 3.21 ± 0.17 | 3.37 ± 0.11 | 3.09 ± 0.26
AFNDSCVNLSLFDARFE [SRB8] | 3.11 ± 0.09 | 3.15 ± 0.059 | 3.39 ± 0.091 | 3.14 ± 0.051
AFNRFMAESLVDLEEVM [SSN8] | 1.57 ± 0.068 | 2.4 ± 0.078 | 2.36 ± 0.17 | 1.62 ± 0.059
AFVKDMQVYLVPIERVA [RPC37] | 1.18 ± 0.13 | 1.39 ± 0.27 | 1.39 ± 0.19 | 1.27 ± 0.21
AGADRLQQGMRGAWGKP [RPL10] | 3.41 ± 0.12 | 3.25 ± 0.13 | 2.95 ± 0.12 | 3.31 ± 0.086
AGEFGLKNKREIYRISF [RPS9B] | 2.56 ± 0.065 | 2.94 ± 0.091 | 3.08 ± 0.14 | 2.77 ± 0.066
AGIPIGLKRSQLDEFKN [SWP82] | 2.56 ± 0.084 | 2.22 ± 0.075 | 2.21 ± 0.098 | 1.38 ± 0.055
AGIRPKFILALNDEGEP [RPN1] |  | 1.9 ± 0.14 | 2.72 ± 0.24 | 1.46 ± 0.073
AGNLITTPEINNFIVER [SRP68] | 2.79 ± 0.067 | 3.07 ± 0.061 | 3.18 ± 0.061 | 2.82 ± 0.049
AGNTTTGGGLFGSKPTG [YGL172W/NUP49] | 2.4 ± 0.084 | 2.18 ± 0.17 | 2.64 ± 0.11 | 2.21 ± 0.097
AGYTDNVIRVWQVMTAN [ASC1] | 1.56 ± 0.14 | 1.35 ± 0.08 | 1.5 ± 0.21 | 1.3 ± 0.075
AHMANPLLRKVVDRESD [PRE4] |  |  | 1.13 ± 0.22 | 
AHSLSPKDYIKKLLEVH [CDC53] | 1.7 ± 0.042 | 2.23 ± 0.064 | 2.56 ± 0.056 | 1.77 ± 0.042
AIALAVRLGEEDMIRSV [RPN1] | 3.42 ± 0.14 | 3.4 ± 0.13 | 3.39 ± 0.1 | 3.39 ± 0.14
AIGYPTLPSVGHTLINN [RPP0] | 3.06 ± 0.21 | 2.65 ± 0.13 |  | 
AIITDDLDTVLKKDIES [SRP72] | 1.99 ± 0.047 | 2.32 ± 0.047 | 2.43 ± 0.061 | 2.43 ± 0.049
AIKELNYNRIAKICALL [NUT1] | 2.41 ± 0.059 | 2.44 ± 0.065 | 2.37 ± 0.08 | 2.32 ± 0.043
AILQKSLKNVTEKNREI [YIL149C/MLP2] | 3.01 ± 0.051 | 2.79 ± 0.064 | 3.05 ± 0.032 | 2.96 ± 0.036
AILVPMTVNDQPIEKNG [YJR042W/NUP85] | 2.44 ± 0.11 | 1.79 ± 0.073 | 2.84 ± 0.074 | 2.8 ± 0.079
